Measurements from the supplement of paper PMC7877785.
± gives the uncertainty stated by the source.

Assay: self-splicing fitness, log relative to wild type (ln ratio); higher = more splicing; Tetrahymena group I intron in knt gene, E. coli kanamycin selection, DiMSum; sequences stand for … in CUCUCU…GGAGGGAAAAGUUAUCAGGCAUGCACCUGGUAGCUAGUCUUUAAACCAAUAGAUUGCAUCGGUUUAAAAGGCAAGACCGUCAAAUUGCGGGAAAGGGGUCAACAGCCGUUCAGUACCAAGUCUCAGGGGAAACUUUGAGAUGGCCUUGCAAAGGGUAUGGUAAUAAGCUGACGGACAUGGUCCUAACCACGCAGCCAAGUCCUAAGUCAACAGAUCUUCUGUUGAUAUGGAUGCAGUUCACAGACUAAAUGUCGGUCGGGGAAGAUGUAUUCUUCUCAUAAGAUAUAGUCGGACCUCUCCUUAAUGGGAGCUAGCGGAUGAAGUGAUGCAACACUGGAGCCGCUGGGAACUAAUUUGUAUGCGAAAGUAUAUUGAUUAGUUUUGGAGUACUCGUGGUCG
Outline: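 The eight P1ex-region nucleotides of an intron in the knt kanamycin-resistance gene on pET-22b(+) were all randomised and the library put into E. coli BL21(DE3). Six replicate transformations were grown overnight at 37°C or 30°C on LB agar with or without 25 μg/mL kanamycin, together with 100 μg/mL carbenicillin, 50 μM IPTG and 0.2% rhamnose. Colonies were pooled and amplicon-sequenced on an Illumina HiSeq 2500. Fitness from DiMSum is the error-weighted combination of wild-type-normalised replicate fold changes, kanamycin over none.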

Sequence	self-splicing fitness (ln) (30 °C)	self-splicing fitness (ln) (37 °C)
UAAAAGCAAUAUUACGCCGA	-1.16 ± 0.12	-0.318 ± 0.14
UAAAAGCAAUAUUACGCCGU	-3.01 ± 0.21	-2.1 ± 0.22
UAAAAGCAAUAUUACGCGCU	-1.22 ± 0.14	0.0478 ± 0.17
UAAAAGCAAUAUUACGCGGG	-2.62 ± 0.1	-1.43 ± 0.12
UAAAAGCAAUAUUACGCUGA	-2.35 ± 0.2	-0.613 ± 0.14
UAAAAGCAAUAUUACGCUGC	-2.51 ± 0.18	-1.35 ± 0.26
UAAAAGCAAUAUUACGCUUC	–	-3.19 ± 0.25
UAAAAGCAAUAUUACGCUUG	-1.9 ± 0.12	-0.981 ± 0.14
UAAAAGCAAUAUUACGCUUU	-3.78 ± 0.23	-2.52 ± 0.3
UAAAAGCAAUAUUACGGAAC	-3.24 ± 0.27	-2.68 ± 0.4
UAAAAGCAAUAUUACGGACC	-1.44 ± 0.2	-1.46 ± 0.29
UAAAAGCAAUAUUACGGCAC	-1.64 ± 0.14	-1.13 ± 0.2
UAAAAGCAAUAUUACGGUGA	-1.15 ± 0.077	-0.788 ± 0.076
UAAAAGCAAUAUUACGGUGG	-2.08 ± 0.088	-1.43 ± 0.089
UAAAAGCAAUAUUACGGUUU	-2.78 ± 0.095	-0.178 ± 0.091
UAAAAGCAAUAUUACGUAAU	-2.6 ± 0.12	-1.08 ± 0.13
UAAAAGCAAUAUUACGUGCA	-0.586 ± 0.067	-0.196 ± 0.079
UAAAAGCAAUAUUACGUGUU	-4.13 ± 0.15	-2.63 ± 0.14
UAAAAGCAAUAUUACGUUAA	-2.14 ± 0.15	-1.38 ± 0.13
UAACAGCAAUAUUACGAAAG	-1.44 ± 0.14	-1.76 ± 0.21
UAACAGCAAUAUUACGAAGU	-3.97 ± 0.17	-3.18 ± 0.16
UAACAGCAAUAUUACGACCC	-2.15 ± 0.18	-1.42 ± 0.19
UAACAGCAAUAUUACGACCU	-0.404 ± 0.098	0.106 ± 0.11
UAACAGCAAUAUUACGACUU	-0.586 ± 0.084	0.316 ± 0.11

Sequence	self-splicing fitness (ln) (30 °C)	self-splicing fitness (ln) (37 °C)
UAACAGCAAUAUUACGAGCU	-3.71 ± 0.12	-2.37 ± 0.11
UAACAGCAAUAUUACGAGUU	-2.87 ± 0.11	-1.8 ± 0.12
UAACAGCAAUAUUACGAUAC	-2.65 ± 0.39	-2.7 ± 0.48
UAACAGCAAUAUUACGAUUU	-1.47 ± 0.056	-0.218 ± 0.065
UAACAGCAAUAUUACGCAUU	-2.59 ± 0.12	-0.539 ± 0.096
UAACAGCAAUAUUACGCGCG	-0.332 ± 0.064	-0.361 ± 0.078
UAACAGCAAUAUUACGCUAC	-3.37 ± 0.15	-2.24 ± 0.2
UAACAGCAAUAUUACGCUCG	-0.803 ± 0.096	-0.212 ± 0.098
UAACAGCAAUAUUACGGAGU	-3.7 ± 0.17	-1.41 ± 0.12
UAACAGCAAUAUUACGGAUC	-3.92 ± 0.22	-2.17 ± 0.15
UAACAGCAAUAUUACGGCCA	-0.28 ± 0.066	-0.439 ± 0.071
UAACAGCAAUAUUACGGCUU	-0.716 ± 0.082	-0.0863 ± 0.1
UAACAGCAAUAUUACGGUGC	-3.42 ± 0.23	-2.86 ± 0.2
UAACAGCAAUAUUACGGUUG	-0.966 ± 0.043	-1.04 ± 0.064
UAACAGCAAUAUUACGGUUU	-1.14 ± 0.05	-0.621 ± 0.063
UAACAGCAAUAUUACGUAAU	-3.27 ± 0.14	-2.23 ± 0.14
UAACAGCAAUAUUACGUAGC	-3.86 ± 0.17	-2.02 ± 0.11
UAACAGCAAUAUUACGUGCC	-3.5 ± 0.22	-1.9 ± 0.15
UAACAGCAAUAUUACGUUCG	-0.514 ± 0.057	0.266 ± 0.073
UAACAGCAAUAUUACGUUCU	-1.17 ± 0.08	-0.668 ± 0.079
UAAGAGCAAUAUUACGACGA	-1.72 ± 0.19	-1.61 ± 0.21
UAAGAGCAAUAUUACGACGU	-2.32 ± 0.33	-1.88 ± 0.39
UAAGAGCAAUAUUACGAUCC	-1.81 ± 0.36	–
UAAGAGCAAUAUUACGAUCG	-3.62 ± 0.17	-1.53 ± 0.18
